test system: Escherichia coli TOP10; experiment: shrunken log2 fold change of peptide-encoding DNA abundance (4.5 h post-induction vs induction); higher = less antimicrobial activity (less host growth inhibition); conditions: time post-induction: 4.5 h; library: site-saturation at positions 5, 18, 19, 20
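Also: peptides expressed intracellularly from a pBAD plasmid library in pooled LB shake-flask culture, induced with 0.3% L-arabinose, DNA abundance read by NGS, three biological replicates, DESeq2 with apeglm shrinkage.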

| Sequence | shrunken log2 fold change |
| --- | --- |
| RRIRYRPPRLPRPRPRPFCLPRP | -1.22 |
| RRIRNRPPRLPRPRPRPLKCPRP | 0.0144 |
| RRIRARPPRLPRPRPRPYTYPRP | -0.458 |
| RRIRERPPRLPRPRPRPGYDPRP | -0.191 |
| RRIRNRPPRLPRPRPRPIHDPRP | 0.177 |
| RRIRIRPPRLPRPRPRPIRCPRP | 0.0793 |
| RRIRLRPPRLPRPRPRPNNDPRP | -0.763 |
| RRIRERPPRLPRPRPRPMWIPRP | -0.102 |
| RRIRKRPPRLPRPRPRPYIYPRP | -0.0483 |
| RRIRWRPPRLPRPRPRPAKGPRP | -0.0312 |
| RRIRLRPPRLPRPRPRPRAIPRP | 0.0282 |
| RRIRLRPPRLPRPRPRPDYCPRP | 0.0561 |
| RRIRRRPPRLPRPRPRPEWHPRP | -0.107 |
| RRIRTRPPRLPRPRPRPHACPRP | 0.158 |
| RRIRGRPPRLPRPRPRPSCYPRP | -0.0977 |
| RRIRLRPPRLPRPRPRPHQGPRP | -0.0634 |
| RRIRNRPPRLPRPRPRPRLMPRP | -0.142 |
| RRIRQRPPRLPRPRPRPVKHPRP | -0.629 |
| RRIRVRPPRLPRPRPRPLDWPRP | 0.188 |
| RRIRNRPPRLPRPRPRPVVAPRP | -0.0949 |
| RRIRCRPPRLPRPRPRPRDHPRP | 0.197 |
| RRIRFRPPRLPRPRPRPDTRPRP | -0.324 |

| Sequence | shrunken log2 fold change |
| --- | --- |
| RRIRNRPPRLPRPRPRPVPHPRP | -0.0692 |
| RRIRERPPRLPRPRPRPTQRPRP | 0.0475 |
| RRIRGRPPRLPRPRPRPRTYPRP | 0.0193 |
| RRIRIRPPRLPRPRPRPDEEPRP | -0.00176 |
| RRIRRRPPRLPRPRPRPKNAPRP | 0.0423 |
| RRIRDRPPRLPRPRPRPSWKPRP | -0.015 |
| RRIRMRPPRLPRPRPRPNTPPRP | 0.188 |
| RRIRHRPPRLPRPRPRPTPAPRP | 0.681 |
| RRIRWRPPRLPRPRPRPTLWPRP | 0.611 |
| RRIRYRPPRLPRPRPRPDKRPRP | -0.168 |
| RRIRLRPPRLPRPRPRPWLVPRP | -0.0391 |
| RRIRMRPPRLPRPRPRPTNHPRP | 0.0232 |
| RRIRSRPPRLPRPRPRPLGFPRP | 0.0335 |
| RRIRVRPPRLPRPRPRPKIPPRP | 0.0285 |
| RRIRGRPPRLPRPRPRPMHVPRP | 0.0539 |
| RRIRMRPPRLPRPRPRPQSSPRP | -0.0185 |
| RRIRNRPPRLPRPRPRPNKMPRP | -0.0283 |
| RRIRWRPPRLPRPRPRPERAPRP | 0.707 |
| RRIRYRPPRLPRPRPRPPSTPRP | -0.294 |
| RRIRMRPPRLPRPRPRPFHYPRP | -0.63 |
| RRIRDRPPRLPRPRPRPPDMPRP | 0.123 |
| RRIRWRPPRLPRPRPRPMQTPRP | 1 |

| Sequence | shrunken log2 fold change |
| --- | --- |
| RRIRRRPPRLPRPRPRPGYDPRP | 0.0506 |
| RRIRGRPPRLPRPRPRPNERPRP | 0.108 |
| RRIRPRPPRLPRPRPRPEQWPRP | 0.0326 |
| RRIRGRPPRLPRPRPRPSFNPRP | 0.131 |
| RRIRLRPPRLPRPRPRPGMLPRP | 0.0285 |
| RRIRTRPPRLPRPRPRPHKAPRP | -0.0306 |
| RRIRWRPPRLPRPRPRPWTYPRP | -0.0122 |
| RRIRRRPPRLPRPRPRPTWVPRP | 0.275 |
| RRIRKRPPRLPRPRPRPFMPPRP | -0.0694 |
| RRIRKRPPRLPRPRPRPVPVPRP | 0.253 |
| RRIRLRPPRLPRPRPRPNREPRP | -0.118 |
| RRIRSRPPRLPRPRPRPKDFPRP | 0.0212 |
| RRIRWRPPRLPRPRPRPAHWPRP | 0.0695 |
| RRIRSRPPRLPRPRPRPQRCPRP | -0.0342 |
| RRIRMRPPRLPRPRPRPTKVPRP | 0.126 |
| RRIRGRPPRLPRPRPRPIVPPRP | 0.02 |
| RRIRPRPPRLPRPRPRPKVPPRP | 0.303 |
| RRIRRRPPRLPRPRPRPEVYPRP | 0.0769 |
| RRIRNRPPRLPRPRPRPKGEPRP | -0.00804 |
| RRIRDRPPRLPRPRPRPASTPRP | 0.397 |
| RRIRKRPPRLPRPRPRPFNWPRP | 0.00115 |
| RRIRCRPPRLPRPRPRPVNGPRP | 1.74 |

| Sequence | shrunken log2 fold change |
| --- | --- |
| RRIRRRPPRLPRPRPRPTANPRP | 0.589 |
| RRIRFRPPRLPRPRPRPACHPRP | -0.0466 |
| RRIRCRPPRLPRPRPRPVWIPRP | -0.441 |
| RRIRHRPPRLPRPRPRPSQQPRP | -0.031 |
| RRIRNRPPRLPRPRPRPLPRPRP | 0.102 |
| RRIRTRPPRLPRPRPRPGGCPRP | 0.26 |
| RRIRFRPPRLPRPRPRPPYNPRP | -0.323 |
| RRIRPRPPRLPRPRPRPPYYPRP | -0.492 |
| RRIRFRPPRLPRPRPRPISAPRP | 0.0624 |
| RRIRYRPPRLPRPRPRPNPMPRP | -0.788 |
| RRIRPRPPRLPRPRPRPMQAPRP | -0.0135 |
| RRIRMRPPRLPRPRPRPWDQPRP | 0.0532 |
| RRIRERPPRLPRPRPRPEDYPRP | 0.00235 |
| RRIRTRPPRLPRPRPRPKGDPRP | 0.00199 |
| RRIRVRPPRLPRPRPRPHKCPRP | -0.274 |
| RRIRCRPPRLPRPRPRPQHKPRP | -0.543 |
| RRIRMRPPRLPRPRPRPDFGPRP | 0.0563 |
| RRIRSRPPRLPRPRPRPRFQPRP | 0.233 |
| RRIRWRPPRLPRPRPRPNQNPRP | -0.221 |
| RRIRKRPPRLPRPRPRPCEIPRP | 0.128 |
| RRIRERPPRLPRPRPRPKRTPRP | 0.108 |
| RRIRHRPPRLPRPRPRPPLMPRP | -0.187 |

| Sequence | shrunken log2 fold change |
| --- | --- |
| RRIRFRPPRLPRPRPRPTDSPRP | -0.0233 |
| RRIRMRPPRLPRPRPRPSRMPRP | 0.454 |
| RRIRWRPPRLPRPRPRPICFPRP | 0.135 |
| RRIRIRPPRLPRPRPRPRFWPRP | 0.345 |
| RRIRARPPRLPRPRPRPMLPPRP | 0.425 |
| RRIRIRPPRLPRPRPRPPGTPRP | 0.029 |
| RRIRYRPPRLPRPRPRPSPSPRP | -0.269 |
| RRIRHRPPRLPRPRPRPPRVPRP | 0.356 |
| RRIRLRPPRLPRPRPRPDYIPRP | -0.161 |
| RRIRWRPPRLPRPRPRPAEMPRP | 0.213 |
| RRIRQRPPRLPRPRPRPLELPRP | 0.0289 |
| RRIRCRPPRLPRPRPRPAFYPRP | -0.146 |
| RRIRKRPPRLPRPRPRPSEHPRP | -0.183 |
| RRIRGRPPRLPRPRPRPFESPRP | 0.0306 |
| RRIRARPPRLPRPRPRPEISPRP | 0.81 |
| RRIRCRPPRLPRPRPRPPRRPRP | 0.909 |
| RRIRGRPPRLPRPRPRPSLNPRP | 0.105 |
| RRIRDRPPRLPRPRPRPIHGPRP | -0.0134 |
| RRIRMRPPRLPRPRPRPKVDPRP | -0.0311 |
| RRIRKRPPRLPRPRPRPLRRPRP | 0.689 |
| RRIRWRPPRLPRPRPRPTANPRP | 0.399 |

Reference: the supplement of paper PMC9112550, “Optimization of the antimicrobial peptide Bac7 by deep mutational scanning” (BMC Biology, 2022)
